Reference: article PMC4188797

Biological target: metabotropic glutamate receptor 1 splice variant mGluR1a (endogenous, rat brain) (rat (endogenous in rat brain)), P23385
Assay: SDS-PAGE and immunoblot of dimer bands in subcellular fractions
Conditions: remark: other sources report otherwise

- stoichiometry N: 2
B1: metabotropic glutamate receptor 1 splice variant mGluR1a (endogenous, rat brain), P23385 19-1199 (receptor)
chain: LPRMPDRKVLLAGASSQRSVARMDGDVIIGALFSVHHQPPAEKVPERKCGEIREQYGIQRVEAMFHTLDKINADPVLLPNITLGSEIRDSCWHSSVALEQSIEFIRDSLISIRDEKDGLNRCLPDGQTLPPGRTKKPIAGVIGPGSSSVAIQVQNLLQLFDIPQIAYSATSIDLSDKTLYKYFLRVVPSDTLQARAMLDIVKRYNWTYVSAVHTEGNYGESGMDAFKELAAQEGLCIAHSDKIYSNAGEKSFDRLLRKLRERLPKARVVVCFCEGMTVRGLLSAMRRLGVVGEFSLIGSDGWADRDEVIEGYEVEANGGITIKLQSPEVRSFDDYFLKLRLDTNTRNPWFPEFWQHRFQCRLPGHLLENPNFKKVCTGNESLEENYVQDSKMGFVINAIYAMAHGLQNMHHALCPGHVGLCDAMKPIDGRKLLDFLIKSSFVGVSGEEVWFDEKGDAPGRYDIMNLQYTEANRYDYVHVGTWHEGVLNIDDYKIQMNKSGMVRSVCSEPCLKGQIKVIRKGEVSCCWICTACKENEFVQDEFTCRACDLGWWPNAELTGCEPIPVRYLEWSDIESIIAIAFSCLGILVTLFVTLIFVLYRDTPVVKSSSRELCYIILAGIFLGYVCPFTLIAKPTTTSCYLQRLLVGLSSAMCYSALVTKTNRIARILAGSKKKICTRKPRFMSAWAQVIIASILISVQLTLVVTLIIMEPPMPILSYPSIKEVYLICNTSNLGVVAPVGYNGLLIMSCTYYAFKTRNVPANFNEAKYIAFTMYTTCIIWLAFVPIYFGSNYKIITTCFAVSLSVTVALGCMFTPKMYIIIAKPERNVRSAFTTSDVVRMHVGDGKLPCRSNTFLNIFRRKKPGAGNANSNGKSVSWSEPGGRQAPKGQHVWQRLSVHVKTNETACNQTAVIKPLTKSYQGSGKSLTFSDASTKTLYNVEEEDNTPSAHFSPPSSPSMVVHRRGPPVATTPPLPPHLTAEETPLFLADSVIPKGLPPPLPQQQPQQPPPQQPPQQPKSLMDQLQGVVTNFGSGIPDFHAVLAGPGTPGNSLRSLYPPPPPPQHLQMLPLHLSTFQEESISPPGEDIDDDSERFKLLQEFVYEREGNTEEDELEEEEDLPTASKLTPEDSPALTPPSPFRDSVASGSSVPSSPVSESVLCTPPNVTYASVILRDYKQSSSTL
